The values below come from article PMC11919686, “Structural basis for Vipp1 membrane binding: from loose coats and carpets to ring and rod assemblies” (Nature Structural & Molecular Biology, 2024).

Series [1] deals with the molecule itself. The series can be described thus: negative-staining EM; protein refolded in the absence of membranes; 2% uranyl acetate.
Series [2] concerns the molecule itself. The series is described as follows: cryo-EM structure; urea-unfolded protein added to an EPL lipid film and refolded by dialysis against 10 mM Tris-HCl pH 8.0; single-particle helical reconstruction or rotational symmetry (tubes, stacked rings, rings).
Series [3] concerns the molecule itself. The series can be described thus: cryo-EM structure; Vipp1 (α1–α6) with and without EPL membrane reconstitution; single-particle helical reconstruction of rods.

B1: Vipp1 dL10 (truncation of aa 157–166) (natural protein, Synechocystis sp. PCC 6803, UniProt Q55707 1-267, looked up)
chain: MGLFDRLGRVVRANLNDLVSKAEDPEKVLEQAVIDMQEDLVQLRQAVARTIAEEKRTEQRLNQDTQEAKKWEDRAKLALTNGEENLAREALARKKSLTDTAAAYQTQLAQQRTMSENLRRNLAALEAKISEAKTKKNMLQARAKAAKANAELQQTLAFERMENKVLDMEATSQAAGELAGFGIENQFAQLEASSGVEDELAALKASMAGGALPGTSAATPQLEAAPVDSSVPANNASQDDAVIDQELDDLRRRLNNL
notes: Vipp1 (sll0617) of Synechocystis sp; PCC 6803 with aa 157–166 (hinge 2) deleted; The methods describe the purification and tag cleavage only for Vipp1 and Vipp1 (α1–α6); source: E. coli C41
B1: the binding result in series [1] is given as “binds”.

B2: Vesicle-inducing protein in plastids 1 (Vipp1), full length, Synechocystis sp. PCC 6803 (natural protein, UniProt Q55707 1-267, looked up)
chain: MGLFDRLGRVVRANLNDLVSKAEDPEKVLEQAVIDMQEDLVQLRQAVARTIAEEKRTEQRLNQDTQEAKKWEDRAKLALTNGEENLAREALARKKSLTDTAAAYQTQLAQQRTMSENLRRNLAALEAKISEAKTKKNMLQARAKAAKANAELQQTLGGLGTSSATSAFERMENKVLDMEATSQAAGELAGFGIENQFAQLEASSGVEDELAALKASMAGGALPGTSAATPQLEAAPVDSSVPANNASQDDAVIDQELDDLRRRLNNL
notes: Vipp1 (sll0617) of Synechocystis sp; PCC 6803, full length; The C-terminal His-tag was cut off with 3C protease; residues of the 3C site may remain at the C-terminus; The deposited models hold 215 residues only; also called IM30; WT; not shown: His-tag, C-terminal, cleaved
In the case of B2, the binding result in series [2] is reported as “binds”.

B3: Vipp1 dL10Ala (substitution of aa 157–166 to alanine) (natural protein, Synechocystis sp. PCC 6803, UniProt Q55707 1-267, looked up)
chain: MGLFDRLGRVVRANLNDLVSKAEDPEKVLEQAVIDMQEDLVQLRQAVARTIAEEKRTEQRLNQDTQEAKKWEDRAKLALTNGEENLAREALARKKSLTDTAAAYQTQLAQQRTMSENLRRNLAALEAKISEAKTKKNMLQARAKAAKANAELQQTLAAAAAAAAAAAFERMENKVLDMEATSQAAGELAGFGIENQFAQLEASSGVEDELAALKASMAGGALPGTSAATPQLEAAPVDSSVPANNASQDDAVIDQELDDLRRRLNNL
notes: Vipp1 (sll0617) of Synechocystis sp; PCC 6803 with the hinge 2 region (aa 157–166) replaced by ten alanines; The methods describe the denaturing purification and tag cleavage only for Vipp1 and Vipp1 (α1–α6); this mutant was probably handled in the same way; also called Vipp1dlA10; plasticity-restrained Vipp1 mutant; source: E. coli C41; reconstituted with EPL lipids or without membranes
On to B3, for which, in series [2], the binding result is “binds”.

B4: Vipp1 (α1–α6), truncation of helix α0 (aa 1–23) (domain or fragment, Synechocystis sp. PCC 6803, UniProt Q55707 24-267, looked up)
chain: DPEKVLEQAVIDMQEDLVQLRQAVARTIAEEKRTEQRLNQDTQEAKKWEDRAKLALTNGEENLAREALARKKSLTDTAAAYQTQLAQQRTMSENLRRNLAALEAKISEAKTKKNMLQARAKAAKANAELQQTLGGLGTSSATSAFERMENKVLDMEATSQAAGELAGFGIENQFAQLEASSGVEDELAALKASMAGGALPGTSAATPQLEAAPVDSSVPANNASQDDAVIDQELDDLRRRLNNL
notes: Vipp1 (sll0617) of Synechocystis sp; PCC 6803 without helix α0 (aa 1–23 truncated); The models were built from PDB 7O3W with aa 1–22 removed, whereas the construct lacks aa 1–23; Residues of the 3C site may remain at the C-terminus; also called Vipp1(α1-6); truncated Vipp1 lacking α0; not shown: His-tag, C-terminal, cleaved
As to B4, the binding result in series [3] is given as “binds”.
